koff data for one molecule are collected here from patent US20190225682A1.

This experiment deals with cyno ST2L (cyno). The experiment is described as follows: affinity table, cyno ST2L; method not stated.

B1: STLM107 (antibody, from another filing, V domains shown)
VH: EVQLLESGGGLVQPGGSLRLSCAASGFTFSDYAMFWVRQAPGKGLEWVSAIEGEGGETNYADSVKGRFTISRDNSKNTLYLQMNSLRAEDTAVYYCARDPWSTEGSFFVLDYWGQGTLVTVSS
VL: EIVLTQSPATLSLSPGERATLSCRASQSVDDDLAWYQQKPGQAPRLLIYDASNRATGIPARFSGSGSGTDFTLTISSLEPEDFAVYYCQQYIGAPITFGQGTKVEIK
As usually defined, the koff is the rate constant with which the complex falls apart. Take B1: the koff amounted to 0.00065 s⁻¹.
